The target of assay [1] is T1, human trkA receptor immunoadhesin (trkA extracellular domain fused to immunoglobulin constant domains) (human, UniProt P04629 33-423).
T1 construct: extracellular domain; not shown: immunoglobulin constant domains
As to the kind of experiment: competitive displacement of labeled NGF from human trkA immunoadhesin, 96-well plate.

Assay [2] addresses T2, human trkC receptor immunoadhesin (trkC extracellular domain fused to immunoglobulin constant domains) (human, UniProt Q16288 32-429).
T2 construct: extracellular domain; not shown: immunoglobulin constant domains
As to the kind of experiment: competitive displacement of labeled NT-3 from human trkC immunoadhesin, 96-well plate.

T1 sequence (P04629 33-423): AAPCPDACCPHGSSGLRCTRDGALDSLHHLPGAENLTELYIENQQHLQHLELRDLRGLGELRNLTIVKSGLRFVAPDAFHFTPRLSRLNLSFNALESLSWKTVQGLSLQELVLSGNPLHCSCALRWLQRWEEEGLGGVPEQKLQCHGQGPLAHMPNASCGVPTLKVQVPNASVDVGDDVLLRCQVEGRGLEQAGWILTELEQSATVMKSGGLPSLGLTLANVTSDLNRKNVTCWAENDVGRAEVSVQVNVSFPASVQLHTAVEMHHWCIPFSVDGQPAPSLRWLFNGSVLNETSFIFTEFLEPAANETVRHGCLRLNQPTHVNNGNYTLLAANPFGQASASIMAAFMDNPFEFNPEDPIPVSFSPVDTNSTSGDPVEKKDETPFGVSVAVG

B1: NGF127 (ligand)
chain: SSSHPIFHRGEFSVCDSESLWVTDKTTATDIKGKEVMVLGEVNINNSVFKQYFFETKCRDPNPVDSGCRGIDSKHWNSQCKTTQTFVKALTMDGKQAAWRFIRIDTACVCVLSRKAVRRA
Turning to B1, in assay [1], the IC50mut/IC50NGF came to 1 ratio. In assay [2], the IC50mut/IC50NGF12 worked out at 2.2 ratio and the IC50mut/IC50NT-3 is 33 ratio.

B2: NGF130 (ligand)
chain: SSSHPIFHRGEFSVCDSVSLWVTDKTTATDIKGKEVMVLGEVNINNSVFKQYFFETKCRDPNPVDSGCRGIDSKHWNSYCTTTQTYVKALTMDGKQAAWRFIRIDTACVCVLSRKAVRRA
In the case of B2, in assay [1], the IC50mut/IC50NGF stood at 1 ratio. In assay [2], the IC50mut/IC50NGF12 stood at 0.3 ratio and the IC50mut/IC50NT-3 turned out to be 4.5 ratio.

B3: NGFR2 (ligand)
chain: SSSHPIFHRGEFSVCDSVSLWVTDKTTATDIKGKEVMVLGEVNINNSVFKQYFFETKCRDPNPVDSGCRGIDSKHWNSYCKTTQTFVKALTMDGKQAAWRFIRIDTACVCVLSRKAVRRA
Regarding B3, the IC50mut/IC50NGF in assay [1] was determined as 0.9 ratio. In addition, in assay [2], the IC50mut/IC50NGF12 came to 0.7 ratio and the IC50mut/IC50NT-3 stood at 10.5 ratio.

B4: NGFR3 (ligand)
chain: SSSHPIFHRGEFSVCDSESVWVTDKTTATDIKGKEVMVLGEVNINNSVFKQYFFETKCRDPNPVDSGCRGIDSKHWNSYCKTTQTFVKALTMDGKQAAWRFIRIDTACVCVLSRKAVRRA
In turn, B4 came in with an IC50mut/IC50NGF in assay [1] of 1.6 ratio. In assay [2], this molecule came in with an IC50mut/IC50NGF12 of 2.5 ratio and an IC50mut/IC50NT-3 of 37.2 ratio.

B5: NGF1234 (ligand)
chain: SSSHPIFHRGEFSVCDSESLWVTDKTTAIDIKGKEVMVLGEVNINNSVFKQYFFETKCRDPNPVDSGCRGIDSKHWNSQCKTTQTYVKALTMDGKQAAWRFIRIDTACVCVLSRKAVRRA
On to B5, for which the IC50mut/IC50NGF in assay [1] worked out at 1.3 ratio. For the same molecule, in assay [2], the IC50mut/IC50NGF12 was 0.3 ratio and the IC50mut/IC50NT-3 stood at 4.9 ratio.

B6: NGF131 (ligand)
chain: SSSHPIFHRGEFSVCDSVSLWVTDKTTAIDIKGKEVMVLGEVNINNSVFKQYFFETKCRDPNPVDSGCRGIDSKHWNSYCTTTQTYVKALTMDGKQAAWRFIRIDTACVCVLSRKAVRRA
notes: also called NGF31
With B6, the IC50mut/IC50NGF in assay [1] came to 1.1 ratio. In assay [2], the IC50mut/IC50NGF12 came out at 0.2 ratio and the IC50mut/IC50NT-3 turned out to be 3.3 ratio.

The record behind these values is patent US6365373 (Genentech, dated 2002).
